Assay results taken from patent US20170224836A1 (Novartis, published 2017).
Changes are numbered by the printed parent chain. Where two headings read alike, the source gives them in different places.

How the values were obtained:
human CDH6 on cells = molecular target: T1, human CDH6 on cells (human, UniProt P55285 54-790); test: FACS on OVCAR3 cells
T1 sequence: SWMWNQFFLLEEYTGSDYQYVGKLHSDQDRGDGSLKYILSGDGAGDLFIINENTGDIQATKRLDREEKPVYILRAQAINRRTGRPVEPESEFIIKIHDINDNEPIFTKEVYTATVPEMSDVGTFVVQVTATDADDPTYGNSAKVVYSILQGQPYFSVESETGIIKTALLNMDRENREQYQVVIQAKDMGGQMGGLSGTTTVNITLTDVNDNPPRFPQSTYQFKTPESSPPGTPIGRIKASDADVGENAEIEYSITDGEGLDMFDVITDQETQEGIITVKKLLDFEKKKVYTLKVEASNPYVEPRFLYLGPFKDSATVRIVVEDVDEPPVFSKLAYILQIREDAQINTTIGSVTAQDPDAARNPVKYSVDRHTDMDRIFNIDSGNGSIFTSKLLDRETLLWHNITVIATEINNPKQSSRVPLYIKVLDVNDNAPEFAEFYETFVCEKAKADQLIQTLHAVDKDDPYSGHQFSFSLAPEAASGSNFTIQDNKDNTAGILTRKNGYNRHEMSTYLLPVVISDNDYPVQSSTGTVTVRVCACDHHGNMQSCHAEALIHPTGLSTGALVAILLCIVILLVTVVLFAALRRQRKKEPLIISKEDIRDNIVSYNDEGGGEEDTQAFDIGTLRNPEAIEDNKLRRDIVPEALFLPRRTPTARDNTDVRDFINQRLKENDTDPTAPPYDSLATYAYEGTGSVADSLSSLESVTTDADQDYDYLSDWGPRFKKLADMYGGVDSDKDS

rat CDH6 on cells = molecular target: T2, rat CDH6 on cells (rat, UniProt P55280 54-789); test: FACS on CHO-ratCDH6 cells
T2 sequence (looked up): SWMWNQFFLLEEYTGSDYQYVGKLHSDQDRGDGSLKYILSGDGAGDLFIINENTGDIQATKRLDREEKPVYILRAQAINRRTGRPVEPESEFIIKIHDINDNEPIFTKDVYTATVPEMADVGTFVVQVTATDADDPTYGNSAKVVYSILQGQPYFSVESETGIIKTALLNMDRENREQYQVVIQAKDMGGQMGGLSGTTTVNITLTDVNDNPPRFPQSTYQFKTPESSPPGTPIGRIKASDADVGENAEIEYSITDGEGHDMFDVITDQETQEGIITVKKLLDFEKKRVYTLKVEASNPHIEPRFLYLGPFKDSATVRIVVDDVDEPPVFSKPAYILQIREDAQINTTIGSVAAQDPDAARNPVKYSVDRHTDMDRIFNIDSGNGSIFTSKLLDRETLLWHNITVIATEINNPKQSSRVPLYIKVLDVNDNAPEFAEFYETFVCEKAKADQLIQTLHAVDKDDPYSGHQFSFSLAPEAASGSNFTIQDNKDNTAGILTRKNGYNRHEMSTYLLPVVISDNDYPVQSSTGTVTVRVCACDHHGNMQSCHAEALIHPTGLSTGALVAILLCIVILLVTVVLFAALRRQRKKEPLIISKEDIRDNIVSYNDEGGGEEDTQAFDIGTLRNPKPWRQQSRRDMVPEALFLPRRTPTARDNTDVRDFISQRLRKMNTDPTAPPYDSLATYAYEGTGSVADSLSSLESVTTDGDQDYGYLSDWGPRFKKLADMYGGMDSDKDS

cynomolgus CDH6 on cells = molecular target: T3, cynomolgus CDH6 on cells (cynomolgus, UniProt A0A2K5TW62 54-790); test: FACS on CHO-cynoCDH6 cells
T3 sequence: T1 sequence with Y300H, H457R, A707G

hCDH6aa54-615 APPavi [1] = molecular target: T4, hCDH6aa54-615 APPavi (human, UniProt P55285 54-615); test: SPR binning
T4 sequence: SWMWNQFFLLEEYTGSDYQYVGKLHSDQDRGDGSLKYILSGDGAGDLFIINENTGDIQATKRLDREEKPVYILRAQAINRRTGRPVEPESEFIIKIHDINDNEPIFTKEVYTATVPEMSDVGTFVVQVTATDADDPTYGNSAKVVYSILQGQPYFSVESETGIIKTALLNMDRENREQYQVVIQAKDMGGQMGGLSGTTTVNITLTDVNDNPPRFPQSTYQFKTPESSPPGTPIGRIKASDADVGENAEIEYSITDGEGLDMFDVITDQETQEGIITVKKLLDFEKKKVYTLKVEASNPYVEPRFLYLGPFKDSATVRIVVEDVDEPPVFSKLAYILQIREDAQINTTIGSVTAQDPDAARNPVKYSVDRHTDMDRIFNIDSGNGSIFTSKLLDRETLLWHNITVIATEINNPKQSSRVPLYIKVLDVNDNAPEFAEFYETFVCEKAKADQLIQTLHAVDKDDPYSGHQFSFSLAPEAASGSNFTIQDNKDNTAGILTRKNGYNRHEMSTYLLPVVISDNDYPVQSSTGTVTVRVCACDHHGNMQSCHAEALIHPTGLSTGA

hCDH6aa54-615 APPavi [2] = molecular target: T4, hCDH6aa54-615 APPavi; test: SPR binning; remark: listed apart in the source

B1: NOV0712 (antibody, human IgG1, kappa, V domains shown)
VH: QVQLLESGGGLVQPGGSLRLSCAASGFTFSSHGMHWVRQAPGKGLEWVSVISGSGSNTGYADSVKGRFTISRDNSKNTLYLQMNSLRAEDTAVYYCARQWGSYAFDSWGQGTLVTVSS
VL: DIQMTQSPSSLSASVGDRVTITCRASQSISSYLNWYQQKPGKAPKLLIYAVSTLQSGVPSRFSGSGSGTDFTLTISSLQPEDFATYYCQQSGTFPPTTFGQGTKVEIKR
Question: B1 was tested. Which “EC50 (read off the curve)” value (human CDH6 on cells) did it give?
Answer: ~0.4 nM

Question: What about the “EC50 (read off the curve)” value (rat CDH6 on cells) of the same binder?
Answer: ~1 nM

Question: And the “EC50 (read off the curve)” value (cynomolgus CDH6 on cells)?
Answer: ~1 nM

Question: What about the “response of secondary antibody on primary antibody-CDH6 complex” value (hCDH6aa54-615 APPavi [1]) of the same binder?
Answer: 9.51

Question: And the “response of secondary antibody on primary antibody-CDH6 complex” value (hCDH6aa54-615 APPavi [2])?
Answer: 24.7
